# From patent US20200247889A1 (published 2020)
# T1: mouse TREM1 (mouse, UniProt Q9JKE2 21-230)
# T1 chain: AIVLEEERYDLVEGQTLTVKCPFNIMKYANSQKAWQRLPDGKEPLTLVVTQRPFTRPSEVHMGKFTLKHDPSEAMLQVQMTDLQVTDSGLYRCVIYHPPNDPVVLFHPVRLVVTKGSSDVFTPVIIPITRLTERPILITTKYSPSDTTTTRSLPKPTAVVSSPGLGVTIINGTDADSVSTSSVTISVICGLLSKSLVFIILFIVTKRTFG
# T2: cynomolgus TREM1 (cynomolgus, UniProt A0A2K5VHG8 21-233)
# T2 chain: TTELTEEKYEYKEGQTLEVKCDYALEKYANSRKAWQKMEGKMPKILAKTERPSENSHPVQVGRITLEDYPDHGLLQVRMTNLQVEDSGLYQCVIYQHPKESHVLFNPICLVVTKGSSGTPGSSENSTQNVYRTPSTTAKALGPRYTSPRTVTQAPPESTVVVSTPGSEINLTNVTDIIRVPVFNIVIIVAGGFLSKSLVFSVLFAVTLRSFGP
# B1: afucosylated Pi-4928 (antibody, V domains shown)
# VH: QVQLKESGPGLVQPSQTLSLTCTVSGFSITSSNVYWFRQPPGKGLEWMGNIWGDGSTDYNSSLKSRLTLSRDTSKNQVFLKINSLQSEDTATYFCTRSWEYYFDHWGQGVVVTVSS
# VL: DIVLTQSPALAVSPGQRATLSCRASQSVTLSNVNLMNWYQQKPGQQPKLLIYHASNLASGIPTRFSGSGSGTDFTLTIDPVQADDIAAYYCQQSGESPRTFGGGTKVELKR
# modifications: afucosylated Fc glycan
# B2: Pi-4928 (antibody, V domains shown)
# VH: B1 VH
# VL: B1 VL
# B3: Pi-9772 (antibody, V domains shown)
# VH: EVQLVESGGGLVQPGGSLRLSCAASGFDLSYSSMHWVRQAPGKGLEWVAYISPYSGYTSYADSVKGRFTISADTSKNTAYLQMNSLRAEDTAVYYCARHGSWSYGFSSGFDYWGQGTLVTVSS
# VL: DIQMTQSPSSLSASVGDRVTITCRASQSVSSAVAWYQQKPGKAPKLLIYSASSLYSGVPSRFSGSRSGTDFTLTISSLQPEDFATYYCQQYAYYYPITFGQGTKVEIKR
# B4: afucosylated Pi-9772 (antibody, V domains shown)
# VH: B3 VH
# VL: B3 VL
# modifications: afucosylated Fc glycan
# B5: Pi-9067L (antibody, V domains shown)
# VH: EVQLVESGGGLVQPGGSLRLSCAASGFDIYSYSIHWVRQAPGKGLEWVAYIYPSYGYTSYADSVKGRFTISADTSKNTAYLQMNSLRAEDTAVYYCARGAVAALDYWGQGTLVTVSS
# VL: DIQMTQSPSSLSASVGDRVTITCRASQSVSSAVAWYQQKPGKAPKLLIYSASSLYSGVPSRFSGSRSGTDFTLTISSLQPEDFATYYCQQYGVSGYSLITFGQGTKVEIKR
# B6: afucosylated Pi-9067L (antibody, V domains shown)
# VH: B5 VH
# VL: B5 VL
# modifications: afucosylated Fc glycan
# B7: mAb0170 (antibody, V domains shown)
# VH: EVQLVESGGGLVQPGGSLKLSCAASGFTFSTYAMHWVRQASGKGLEWVGRIRTKSSNYATYYAASVKGRFTISRDDSKNTAYLQMNSLKTEDTAVYYCTRDMGIRRQFAYWGQGTLVTVSS
# VL: DIVLTQSPDSLAVSLGERATINCRASESVDTFDYSFLHWYQQKPGQPPKLLIYRASNLESGVPDRFSGSGSGTDFTLTISSLQAEDVAVYYCQQSNEDPYTFGQGTKLEIK
# B8: Protein binding (receptor)
# chain: T1 chain
# Biological target: T1, mouse TREM1
# Experiment: cell binding
row,EC50 [nM],Binder
1,2.32,B1
2,1.41,B2
3,2.85,B3
4,6.35,B4
5,1.85,B5
6,2.9,B6

# Biological target: T1, mouse TREM1
# Experiment: SPR (Biacore); avid
row,Kd [nM],Binder
1,0.11,B1
2,0.11,B2
3,0.15,B3
4,0.71,B4
5,0.09,B5
6,0.15,B6

# Biological target: T1, mouse TREM1
# Experiment: cell binding; BALB/c splenocyte neutrophils
row,EC50 [nM],Binder
1,1.36,B2
2,6.83,B3
3,0.98,B5

# Biological target: T2, cynomolgus TREM1
# Experiment: flow cytometry cell binding
row,EC50 [nM],Binder
1,0.13,B7

# Biological target: T2, cynomolgus TREM1
# Experiment: cell binding
row,EC50 [nM],Binder
1,0.13,B7

# Biological target: 9067s
# Experiment: SPR
row,Kd [nM],Binder
1,0.87,B8
